The results in this text go back to the DeepSol protein solubility set.

The nature of this series: soluble on expression in E. coli; label from the status in PepcDB or PDB records.
In the case of “MGEEKEIRIIVLEDGEHLESVIRKIEKGWIVRFKRGSSLLGKKVKVFTSICPGNSLEWSEGKDHLAVYCQVECKEAGSFRYWFKIEDSEERGSGYFLVMPELKINGKCLPLDGIACQTYLTKLLGPLSEWKERLEVAHQTGYNMIHLTPIHELGISNSSYSLSDHHSLIKTIQSQDQKFGFEDVQALVGDLERSWNILTVQDVVWNHAAKNATWLLEHPESAYNCLNSPHLRPAYVIDRVYHEFGKQIGEGVWEHRGVPPVVDNIHHVNAIEYLLRAEVLPKADLHEFYQVDLKAMVNLFEVFIKQSSGPTTNPLDGEDVEIEQDLECRRFGNTVDFERSARIFNRHRGDAKSEEERVEKCVRSFEEALNNKNLEAARESWEVILAGLAAVMGGITYERIADNGPKKGLVSPENPLTTDYFLHLEADLGWKSEEKFAYDPEKSKFLMAFNGWVMSSDPMKNFALKESQVYLRRELVCWGDSVKLNYGNKEADSPFLWQYMKEYTQQAARIFHGLRIDNAHGTPIHVAEKLLKTAREVRPDIYVFAELFTGSEHADNMFVNRLGISSLIREAQSAHDSHEQGRLVYRYGGDCVGAFKQKSARLAPKSIAHGLFLDQSHDNPSPIHTRSPFDILPTAAMLTMASCAVGSNRGYDELIRDHIHVVSEKRPYASWCRPDQVSRSQGIIEGRNLLNKLHTWLAEHGYSQVFVDQMNSDIVGITRHNPRTHETVVVVSHTSFSKNYIDWPGGLKHIPIGGVLENVIFEMKLKKVQEEWGTEDPDVLIGLKNYEMEIRENVNLDNGTMFKVHDGYIELTNFPTGSVVGFKIRPSDEATKAFNMIHNSITPEQSEFDSALSRLTYQSFPNLLFHCESEDYATIQQGGYDVPNFGKFVYCGLQGLVPVLEKIRDDNDLGHPLCQNLRDGTWICDYIVGRLAKFEKLGEVSEAIRKFFAPLDHVPYYLRPCYFELLVSYIYGKIRKEALKRMAPQISSSSALVRHLAISTLSFLGYIPGAGLAPIPTSLQIEDQYPSSLAAGLSHFAVGIWRNWGRDTFIALPGCLLSTGRFQEARQIILSFAGAIRHGLIPNLLAEGIGARYNCRDATWFWLVSIVKYVESAPNGVGILEDPVRRIYPNDDSVYGEGEVQQMLIETIYEALDKHFAGIDYRERSAGPQIDEQMRDEGFQVTAGVSRTTGFIYGGNRWNCGTWMDKMGSSERAGNKGEPATPRDGAAVELQGLAYRALKSLKNWKEQGVIQRSGVSDEWTWGFWAQKIRENFEKEFFVDKDSYAEFVNRREIIKDSVGSTLGFTDFQLRCNFGIALAVAPDLMDPKKAWKALDSAEVLLGPLGMKTLDPTDWAYNGYYNNDDDGTDKKTAKGWNYHQGPEWLFVAGYYLQARLRIGDILGGSEKQYAIRQVQERLGNAYKHIISSPWRSLPELTNADGEYCMQSCAAQAWSVGCLIEACVKLNTIEG”, the “soluble on expression in E. coli” value was “not soluble”. With “MGFGNINFCAVDLGSHKITVAIGQLAENNSIKILGVSQKQSKGIKQGSVINLEIAMETLNAALDEAKSIAGVDVKEVTLGVSAPSISGFNSYGLAAVENGEVSIEDLAMAIKTAKAVPMSADTEMLHVLQRDYIVDGQAGVTEPIGMFAVRLESNVHIIVASSRLLQNVRKCVSNCGYSISNLVVEHLAASSATLTDNEKEMGVCLVNIGADSTSFSVFADGGICYTSSIKTGGASISSDISKVFRLPIEAAESLKLQYGYAASKYLKNPDEKIDIPNSLGNAKKRISLQDLSLVIEARVEEIFESLYRELDQHRLLEVISSGIVFTGGGAKLKGLARLAEDMFKLPVRVGGPIEVSGANEVVHNPSYATVVGLLKYAAENSDTSNQQKIEEDVMEIDENTGKSKKKIISSVKGWFSNNF”, the “soluble on expression in E. coli” value was “not soluble”. For “MGFLERIKKLFSKEEEKQEESILSNPLERLKKGDIIEIDGETWEVTDVALYDYGASKEKEWEIRSASRRGFLSLEEGKIYFFEEIDPEELEPDPGEHFRKYGKPPEYVTYKGKRYRLKYAGKAKYIKNLESYPVTIWEFRSEDGEMIDLEIWDEYEIEAYKGRELQEWEIESILPR” the value was “not soluble”. As for “MGFLPDSWHFYIETLLVALLAYVVMRNRSKRQQEKLSKKLTERQKDELIADWTPEPLVPETPQDHPVLNPKYADGKMTKDVSIDGEKYLNMASTNFLSFIGVKRIEDRAKQTIFKYGVGSCGPRGFYGTVDVHLDLEKELAKFMGCEEAVLYSYGFATVSSAIPAYAKKGDVIFVDEGVNFAIQKGLQASRSRVEYFKHNDMEHLERLLLEQEQRDKKDPKKAKSVRRFIVVEGLYVNYADLCPLPKIIEFKWRFKVRVFIDESWSFGVIGKTGRGVTEHFNVPMEDVDMVMASLENALASTGGFCVGRSYVVGHQRLSGLGYCFSASLPPLLATAASEAISIIDEEPSRVQKVTEMAINGQKKLQDALSGSKFSLQGCPESPMKHIYYNGEDEEKQLDTFVETVFTKNHLLLTRARYLDKDELFKIRPSIRVMFQHDLTEEEIQRAVDAIRVVAHKF”, the “soluble on expression in E. coli” value is recorded as “not soluble”. As to “MGFLWKTAKLGIKVGLVAGAVKLSIDNDIWSTNNVKGSELYQKLKKYILPGTVVFPEQLPTVEDVQLKAGGKWNSAVDSVFTTIENVPSSVNTVANRLINNK”, the “soluble on expression in E. coli” value was “not soluble”.

As for “MGGIPDITPYPLTYSLGGVIPLSSVLEMLWVEKYRPRSLDDIVDQKHVVERLKQFVKQRNMPHLLFAGPPGTGKTTAAHALAHDLFGENYRQYMLELNASDERGINVIREKVKEFARSRTPPEIPFKIVLLDEADNMTSDAQQALRRLMELYSSVTRFILIANYPSKIIDPIQSRCAFFRFQPLSKQDVIERLRYIAENEGVDYEEEALDAIYEISEGDMRKAINVLQAASYLGKVTVDAVYRVVGMAKPREVREMLATALKGDFTAARSLLRKIMIEYGMSGEDVARQIHRELFSTELKMPEELRVLAADYLGEVHYRLVEGSDDDIQLSAFLAWLTMMSRKLEV”, the “soluble on expression in E. coli” value is recorded as “soluble”. For the sequence “MGGLSAQSTAATATMGGKNKQRTKGNLRPSNSGRAAELLAKEQGTVPGFIGFGTSQSDLGYVPAIQGAEEIDSLVDSDFRMVLRKLSKKDVTTKLKAMQEFGTMCTERDTETVKGVLPYWPRIFCKISLDHDRRVREATQQAFEKLILKVKKQLGPYLKSLMGYWLMAQCDTYTPAAFAAKDAFEAAFPPSKQPEAIAFCKDEITSVLQDHLIKETPDTLSDPQTVQRKKEKLNSTGLLEHHHHHH”, the “soluble on expression in E. coli” value is given as “not soluble”. Consider “MGGSHHHHHHGMASALAPKQDPKPKFQEGERVLCFHGPLLYEAKCVKVAIKDKQVKYFIHYSGWNKNWDEWVPESRVLKYVDTNLQKQRELQKANQEQYAEGKMRGAAPGKKTSGLQQKNVEVKTKKNKQKTPGNGDGGSTSETPQPPRKKRARVDPTVENEETFMNRVEVKVKIPEELKPWLVDDWDLITRQKQLFYLPAKKNVDSILEDYANYKKSRGNTDNKEYAVNEVVAGIKEYFNVMLGTQLLYKFERPQYAEILADHPDAPMSQVYGAPHLLRLFVRIGAMLAYTPLDEKSLALLLNYLHDFLKYLAKNSATLFSASDYEVAPPEYHRKAV”, for which the “soluble on expression in E. coli” value is reported as “not soluble”. In the case of “MGGSHHHHHHGMASALSQATKRKHVVKEVLGEHIVPSNQQQIVRVLRTPGNNLHEVETAQGQRFLVSMPSKYRKNIWIKRGDFLIVDPIEEGEKVKAEISFVLCKDHVRSLQKEGFWPEAFSEVAEKHNNRNRQTQPELPAEPQLSGEESSSEDDSDLFVNTNRRQYHESEEESEEEEAA”, the “soluble on expression in E. coli” value is on record as “not soluble”. On to “MGHEAKHPIIIGITGNIGSGKSTVAALLRSWGYPVLDLDALAARARENKEEELKRLFPEAVVGGRLDRRALARLVFSDPERLKALEAVVHPEVRRLLMEELSRLEAPLVFLEIPLLFEKGWEGRLHGTLLVAAPLEERVRRVMARSGLSREEVLARERAQMPEEEKRKRATWVLENTGSLEDLERALKAVLAELTGGAKEGRG”, for which the “soluble on expression in E. coli” value is on record as “soluble”. With “MGHHHHHHGGHMSLITAEECRTYKEFVDLYQSYLYPLLGARLSRMYSPKNKVIIDMGTGPGYLSIQLAKRTNAHVHAVDINPAMHEIAQEEAKKSGVSSLISFDLEDVHHLSYADQYADFIVSYSCLHHWEDVVKGLKECYRVLAPGGKIVILDTFNPQGSHLEIMRKQIKEPEYFRFVREAFEESYSFEDIHQFVQDAGIPNYSLETFHFLPEDFIESLDELEDAPLWEQNDQSTDHEIESVTWMLTIEKEKEGALEGGS”, the “soluble on expression in E. coli” value was “soluble”. For “MGHHHHHHGGHMSLSAYKTVVVGTDGSDSSMRAVDRAAQIAGADAKLIIASAYLPQHEDARAADILKDESYKVTGTAPIYEILHDAKERAHNAGAKNVEERPIVGAPVDALVNLADEEKADLLVVGNVGLSTIAGRLLGSVPANVSRRAKVDVLIVHTTEGGS” the value was “soluble”; for “MGHHHHHHHHHHSSGHIEGRHMGKNVLLLGSGFVAQPVIDTLAANDDINVTVACRTLANAQALAKPSGSKAISLDVTDDSALDKVLADNDVVISLIPYTFHPNVVKSAIRTKTDVVTSSYISPALRELEPEIVKAGITVMNEIGLDPGIDHLYAVKTIDEVHRAGGKLKSFLSYCGGLPAPEDSDNPLGYKFSWSSRGVLLALRNSAKYWKDGKIETVSSEDLMATAKPYFIYPGYAFVCYPNRDSTLFKDLYHIPEAETVIRGTLRYQGFPEFVKALVDMGMLKDDANEIFSKPIAWNEALKQYLGAKSTSKEDLIASIDSKATWKDDEDRERILSGFAWLGLFSDAKITPRGNALDTLCARLEELMQYEDNERDMVVLQHKFGIEWADGTTETRTSTLVDYGKVGGYSSMAATVGYPVAIATKFVLDGTIKGPGLLAPYSPEINDPIMKELKDKYGIYLKEKTVA”, “soluble”. For the sequence “MGHHHHHHHHHHSSGHIEGRHMYTVMLDLKGRSVLVVGGGTIATRRIKGFLQEGAAITVVAPTVSAEINEWEAKGQLRVKRKKVGEEDLLNVFFIVVATNDQAVNKFVKQHIKNDQLVNMASSFSDGNIQIPAQFSRGRLSLAISTDGASPLLTKRIKEDLSSNYDESYTQYTQFLYECRVLIHRLNVSKSRKHELLTEIIDDQYRLSLVKQREFLQQIEKYK”, the “soluble on expression in E. coli” value is on record as “soluble”. For “MGHHHHHHKVTLPDLKWDFGALEPYISGQINELHYTKHHQTYVNGFNTAVDQFQELSDLLAKEPSPANARKMIAIQQNIKFHGGGFTNHCLFWENLAPESQGGGEPPTGALAKAIDEQFGSLDELIKLTNTKLAGVQGSGWAFIVKNLSNGGKLDVVQTYNQDTVTGPLVPLVAIDAWEHAYYLQYQNKKADYFKAIWNVVNWKEASRRFDAGKI”, the “soluble on expression in E. coli” value is “soluble”.

In the case of “MGHHHHHHSHAADEEKAARGIAADRLIIGHVARFHEVKNHAFLLKLAAHLKERGIRFQLVLAGDGPLCGEIEEEARQQNLLSDVLFLGTEERIHELMRTFDVFVMPSLYEGLPVVLVEAQASGLPCIISDSITEKVDAGLGLVTRLSLSEPISVWAETIARAAAAGRPKREFIKETLAQ”, the “soluble on expression in E. coli” value was “soluble”.

On to “MGHHHHHHSHAKGKSAGLVKATGRNMEQFQVSVSVAPNAKITFELVYEELLKRRLGVYELLLKVRPQQLVKHLQMDIHIFEPQGISFLETESTFMTNQLVDALTTWQNKTKAHIRFKPTLSQQQKSPEQQETVLDGNLIIRYDVDRAISGGSIQIENGYFVHYFAPEGLTTMPKNVVFVIDKSGSMSGRKIQQTREALIKILDDLSPRDQFNLIVFSTEATQWRPSLVPASAENVNKARSFAAGIQALGGTNINDAMLMAVQLLDSSNQEERLPEGSVSLIILLTDGDPTVGETNPR”, for which the “soluble on expression in E. coli” value is listed as “not soluble”. Take “MGHHHHHHSHALKRLEVEVELFNQPSEELENFDFIVSVGGDGTILRILQKLKRCPPIFGINTGRVGLLTHASPENFEVELKKAVEKFEVERFPRVSCSAMPDVLALNEIAVLSRKPAKMIDVALRVDGVEVDRIRCDGFIVATQIGSTGYAFSAGGPVVEPYLECFILIPIAPFRFGWKPYVVSMERKIEVIAEKAIVVADGQKSVDFDGEITIEKSEFPAVFFKNEKRFRNL”: the “soluble on expression in E. coli” value is “not soluble”.
